# Measured values as given in the supplement of paper PMC9112550, “Optimization of the antimicrobial peptide Bac7 by deep mutational scanning” (BMC Biology, 2022).
# Tested on: Escherichia coli TOP10
# Assay: shrunken log2 fold change of peptide-encoding DNA abundance (4.5 h post-induction vs induction); higher = less antimicrobial activity (less host growth inhibition)
# Details: time post-induction: 4.5 h; library: site-saturation at positions 5, 18, 19, 20
# 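Also: peptides expressed intracellularly from a pBAD plasmid library in pooled LB shake-flask culture, induced with 0.3% L-arabinose, DNA abundance read by NGS, three biological replicates, DESeq2 with apeglm shrinkage.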
row,Sequence,shrunken log2 fold change
1,RRIRERPPRLPRPRPRPWANPRP,-0.0497
2,RRIRDRPPRLPRPRPRPDAAPRP,1.67
3,RRIRNRPPRLPRPRPRPLWQPRP,-0.303
4,RRIRARPPRLPRPRPRPDQVPRP,0.359
5,RRIRTRPPRLPRPRPRPCDCPRP,-0.0712
6,RRIRERPPRLPRPRPRPVLIPRP,-0.153
7,RRIRCRPPRLPRPRPRPCPCPRP,-1.35
8,RRIRWRPPRLPRPRPRPRCSPRP,0.362
9,RRIRPRPPRLPRPRPRPAEGPRP,0.394
10,RRIRMRPPRLPRPRPRPIFWPRP,0.337
11,RRIRQRPPRLPRPRPRPTFAPRP,0.209
12,RRIRKRPPRLPRPRPRPRTLPRP,0.454
13,RRIRIRPPRLPRPRPRPVEFPRP,-0.0453
14,RRIRTRPPRLPRPRPRPVAYPRP,-0.502
15,RRIRMRPPRLPRPRPRPTFSPRP,0.386
16,RRIRVRPPRLPRPRPRPYQFPRP,-0.0508
17,RRIRNRPPRLPRPRPRPDQTPRP,-0.0645
18,RRIRERPPRLPRPRPRPHDGPRP,-0.532
19,RRIRERPPRLPRPRPRPNNDPRP,-0.663
20,RRIRDRPPRLPRPRPRPCSCPRP,0.173
21,RRIRWRPPRLPRPRPRPKCTPRP,1.21
22,RRIRQRPPRLPRPRPRPSPCPRP,-0.0648
23,RRIRPRPPRLPRPRPRPIEFPRP,-0.114
24,RRIRQRPPRLPRPRPRPPMHPRP,0.277
25,RRIRERPPRLPRPRPRPWSEPRP,-0.398

row,Sequence,shrunken log2 fold change
1,RRIRFRPPRLPRPRPRPHWKPRP,-0.162
2,RRIRHRPPRLPRPRPRPPSDPRP,0.146
3,RRIRFRPPRLPRPRPRPFAAPRP,0.114
4,RRIRRRPPRLPRPRPRPQPHPRP,0.396
5,RRIRGRPPRLPRPRPRPTEAPRP,-0.0279
6,RRIRGRPPRLPRPRPRPPEMPRP,1.62
7,RRIRSRPPRLPRPRPRPWFSPRP,-0.544
8,RRIRKRPPRLPRPRPRPSHKPRP,-0.262
9,RRIRPRPPRLPRPRPRPVHNPRP,-0.038
10,RRIRPRPPRLPRPRPRPMQLPRP,0.406
11,RRIRARPPRLPRPRPRPIWCPRP,0.00499
12,RRIRFRPPRLPRPRPRPYPKPRP,-0.323
13,RRIRLRPPRLPRPRPRPRADPRP,2.32
14,RRIRPRPPRLPRPRPRPNSTPRP,-0.23
15,RRIRWRPPRLPRPRPRPVIDPRP,0.373
16,RRIRERPPRLPRPRPRPADKPRP,-0.187
17,RRIRRRPPRLPRPRPRPPAQPRP,0.535
18,RRIRVRPPRLPRPRPRPRCPPRP,-0.00901
19,RRIRQRPPRLPRPRPRPHSCPRP,-0.194
20,RRIRMRPPRLPRPRPRPPMKPRP,-0.0709
21,RRIRYRPPRLPRPRPRPTLVPRP,-0.0641
22,RRIRCRPPRLPRPRPRPGTLPRP,-0.237
23,RRIRCRPPRLPRPRPRPYMWPRP,-0.913
24,RRIRARPPRLPRPRPRPCTDPRP,-0.0325
25,RRIRCRPPRLPRPRPRPYVFPRP,-0.362

row,Sequence,shrunken log2 fold change
1,RRIRRRPPRLPRPRPRPFCIPRP,-0.174
2,RRIRPRPPRLPRPRPRPLVHPRP,-0.00919
3,RRIRNRPPRLPRPRPRPKFQPRP,-0.505
4,RRIRGRPPRLPRPRPRPQMFPRP,0.612
5,RRIRIRPPRLPRPRPRPCLIPRP,-0.337
6,RRIRTRPPRLPRPRPRPWHDPRP,-0.0708
7,RRIRQRPPRLPRPRPRPNRLPRP,0.0179
8,RRIRIRPPRLPRPRPRPPPTPRP,0.834
9,RRIRIRPPRLPRPRPRPNVSPRP,-0.052
10,RRIRQRPPRLPRPRPRPLHSPRP,-0.295
11,RRIRGRPPRLPRPRPRPPLKPRP,1.03
12,RRIRMRPPRLPRPRPRPFLSPRP,-0.0215
13,RRIRERPPRLPRPRPRPVCVPRP,-0.0194
14,RRIRWRPPRLPRPRPRPKPCPRP,0.229
15,RRIRRRPPRLPRPRPRPTDHPRP,-0.235
16,RRIRLRPPRLPRPRPRPHTQPRP,-0.31
17,RRIRLRPPRLPRPRPRPPVNPRP,0.168
18,RRIRRRPPRLPRPRPRPERVPRP,0.125
19,RRIRMRPPRLPRPRPRPTVDPRP,0.00715
20,RRIRHRPPRLPRPRPRPVRCPRP,0.592
21,RRIRERPPRLPRPRPRPIRTPRP,-0.577
22,RRIRDRPPRLPRPRPRPQNEPRP,-0.24
23,RRIRQRPPRLPRPRPRPQYAPRP,-0.176
24,RRIRYRPPRLPRPRPRPVGAPRP,0.252
25,RRIRLRPPRLPRPRPRPIYDPRP,-1
